Experimental data: patent US20230203162A1 (NUMAB THERAPEUTICS, published 2023)
Residue numbers refer to the chain shown, from its start. In names and notes the source's numbering stands. One block for each binder: values may come before it.

Legend:
[1] = target: T1, plasma-membranous human MSLN on cell lines (H226, HPAC, H292, OVCAR-3, MeT-5A) (human, UniProt Q13421 296-598); experiment: cell-based or functional assay
[2] = target: soluble mesothelin (sMSLN); experiment: cell-based or functional assay
[3] = target: T1, plasma-membranous human MSLN on cell …; experiment: cell-based or functional assay; remark: listed apart in the source
[4] = target: T1, plasma-membranous human MSLN on cell …; experiment: cell-based or functional assay; remark: listed apart in the source
[5] = target: T1, plasma-membranous human MSLN on cell …; experiment: cell-based or functional assay; remark: listed apart in the source
[6] = target: T1, plasma-membranous human MSLN on cell …; experiment: cell-based or functional assay; remark: listed apart in the source
[7] = target: T1, plasma-membranous human MSLN on cell …; experiment: cell-based or functional assay; remark: listed apart in the source
[8] = target: T1, plasma-membranous human MSLN on cell …; experiment: cell-based or functional assay; remark: listed apart in the source
[9] = target: soluble mesothelin (sMSLN); experiment: cell-based or functional assay; remark: listed apart in the source
[10] = target: T2, human recombinant CD3ε protein (Sino Biological) (human, UniProt P07766 23-126); experiment: SPR, CD3ε amine-coupled to CM5, antibody injected
T2 construct: Bought protein; also called recombinant human CD3ε; human CD3ε

[11] = target: T1, plasma-membranous human MSLN on cell …; experiment: flow cytometry on H226 cells, protein L-PE, 4PL fit
[12] = target: T1, plasma-membranous human MSLN on cell …; experiment: flow cytometry on H292 cells, protein L-PE, 4PL fit
[13] = target: T1, plasma-membranous human MSLN on cell …; experiment: flow cytometry on HPAC cells, protein L-PE, 4PL fit
[14] = target: T1, plasma-membranous human MSLN on cell …; experiment: flow cytometry on Met-5A cells, protein L-PE, 4PL fit
[15] = target: human serum albumin (hSA, Sigma-Aldrich A3782) (human, UniProt P02768 25-609); experiment: SPR, hSA amine-coupled to CM5, antibody injected, pH 5.5, 1:1 Langmuir
[16] = target: T2, human recombinant CD3ε protein (Sino …); experiment: SPR, CD3ε amine-coupled to CM5, antibody injected; footnote: ka1 of a two-state fitting model
[17] = target: T2, human recombinant CD3ε protein (Sino …); experiment: SPR, CD3ε amine-coupled to CM5, antibody injected; footnote: kd1 of a two-state fitting model
[18] = target: T3, recombinant human MSLN (purchased from Peprotech) (human, UniProt Q13421 296-598, limits assumed); experiment: SPR (Biacore T200), human MSLN; which of the two formats (MSLN immobilized / antibody captured) not given
T3 construct: Bought protein; also called recombinant human mesothelin

[19] = target: T1, plasma-membranous human MSLN on cell …; experiment: flow cytometry on H226 cells
[20] = target: T1, plasma-membranous human MSLN on cell …; experiment: flow cytometry on H292 cells
[21] = target: T1, plasma-membranous human MSLN on cell …; experiment: flow cytometry on HPAC cells

EC50 CD8+ T cell activation, H226 cells [3]: 0.09 pM | EC50 CD8+ T cell activation, Met-5A cells [3]: 10.9 pM | EC50 CD8+ T cell activation, H292 cells [4]: 34.1 pM | EC50 CD8+ T cell activation, HPAC cells [4]: 47.2 pM | EC50 CD8+ T cell activation with H226 cells, 50 ng/ml MSLN [6]: 200 pM | EC50 CD8+ T cell activation with H226 cells, 500 ng/ml MSLN [6]: 1120 pM | EC50 CD8+ T cell activation with H226 cells, no MSLN [6]: 22.9 pM | Fold-diff Window (mean Met-5A EC50 / mean H226 EC50) [8]: 1.1 fold | Kd [10]: 12100 pM | EC50 [11]: 1570 pM | max. binding (MFI) [11]: 467000 MFI | EC50 [12]: 709 pM | max. binding (MFI) [12]: 12200 MFI | EC50 [13]: 2160 pM | max. binding (MFI) [13]: 33300 MFI | EC50 [14]: 194 pM | max. binding (MFI) [14]: 11200 MFI | Kd [15]: 175 pM | koff [15]: 6.39e-05 s⁻¹ | kon [15]: 366000 M⁻¹ s⁻¹ | kon [16]: 293000 M⁻¹ s⁻¹ | koff [17]: 0.00508 s⁻¹ | Kd [18]: 187 pM | koff [18]: 4.96e-05 s⁻¹ | kon [18]: 265000 M⁻¹ s⁻¹
B1: PRO1872 (scMATCH3, MSLNlow KD×CD3×hSA) (other)
chain: DVVMTQSPSSLSASVGDRVTITCQASQIISSRSAWYQQKPGQPPKLLIYQASKLASGVPSRFSGSGSGTDFTLTISSLQPEDFATYYCQCTYIDSNFGAFGCGTKLTVLGGGGGSEVQLVESGGGLVQPGGSLRLSCAASGFSLSSYDMSWVRQAPGKGLAWIGASYASGPTYYASWAKGRFTISRDNSKNTVYLQMNSLRAEDTATYFCARGGWTGTSHSNIWGQGTLVTVSSGGGGSGGGGSGGGGSGGGGSDIQMTQSPSSLSASVGDRVTITCQSSQSVFSNNYLAWFQQKPGQSPKRLIYSASTLASGVPSRFSGSGSGTDFTLTISSLQPEDFATYYCLGSYACSSADCYVFGTGTKVTVLGGGGGSEVQLVESGGGLVQPGGSLRLSCAASGFSFSSSYWICWVRQAPGKCLEWVGCVFTGDGTTYYASWAKGRFTISRDNSKNTVYLQMNSLRAEDTATYFCARPVSVYYYGMDLWGQGTLVTVSSGGGGSGGGGSDIQMTQSPSSLSASVGDRVTITCQASESIGNYLAWYQQKPGKAPKLLIYSASTLASGVPSRFSGSGSGTDFTLTISSLQPEDFATYYCQSTDYGDSYIFGTGTKVTVLGGGGGSGGGGSGGGGSGGGGSEVQLVESGGGLVQPGGSLRLSCAASGISVSNDYYMCWVRQAPGKGLEWIGCISTYIGNTHYASWAKGRFTISRDNSKNTVYLQMNSLRAEDTAVYYCAKNAGYPGYRYAIDLWGQGTLVTVSS
notes: also called MSLN.CD3
fold killing potency against PRO2000, H292 cells [1]: 7 fold | fold killing potency against PRO2000, MeT-5A cells [1]: 16 fold | fold lower H226 killing potency against PRO2000, no sMSLN [1]: 20 fold | fold lower H226 killing potency against PRO2100, no sMSLN [1]: 10 fold | fold reduction of H226 killing potency with 500 ng/ml sMSLN [2]: 106 fold | shift of H226 killing potency with 100 ng/ml sMSLN [2]: 10 fold | EC50 target cell killing, H226 cells [3]: 5.31 pM | EC50 target cell killing, Met-5A cells [3]: 8.88 pM | EC50 target cell killing, H292 cells [4]: 91 pM | EC50 target cell killing, HPAC cells [4]: 30.3 pM | EC50 H226 target cell killing, 50 ng/ml soluble mesothelin [5]: 636 pM | EC50 H226 target cell killing, 500 ng/ml soluble mesothelin [5]: 4650 pM | EC50 H226 target cell killing, no mesothelin [5]: 43.9 pM | EC50 target cell killing, H226 cells, 100 ng/ml sMSLN [7]: 130 pM | EC50 target cell killing, H226 cells, no sMSLN [7]: 13.4 pM | max. killing, H226 cells, 100 ng/ml sMSLN [7]: 60.7% | max. killing, H226 cells, no sMSLN [7]: 54% | average mean H226 EC50, cell killing (LDH release) [8]: 120 pM | average mean Met-5A EC50, cell killing (LDH release) [8]: 138 pM | Delta 0-50 ng/mL sMSLN (x-fold change in H226 killing potency) [9]: 8.5 fold | Delta 0-500 ng/mL sMSLN (x-fold change in H226 killing potency) [9]: 78.2 fold

fold CD8+ T cell activation potency against PRO1872, HPAC cells [1]: 4 fold | EC50 CD8+ T cell activation, Met-5A cells [3]: 544 pM | EC50 CD8+ T cell activation, H292 cells [4]: 114 pM | EC50 CD8+ T cell activation, HPAC cells [4]: 12.2 pM | EC50 CD8+ T cell activation with H226 cells, 50 ng/ml MSLN [6]: 7.85 pM | EC50 CD8+ T cell activation with H226 cells, 500 ng/ml MSLN [6]: 42.4 pM | EC50 CD8+ T cell activation with H226 cells, no MSLN [6]: 1.99 pM | fold binding against PRO1872 [19]: 3 fold | fold lower binding against PRO1872 [20]: 2 fold | fold binding against PRO1872 [21]: 1.5 to 2 fold | Kd [10]: 20000 pM | EC50 [11]: 659 pM | max. binding (MFI) [11]: 362000 MFI | EC50 [12]: 1030 pM | max. binding (MFI) [12]: 6960 MFI | EC50 [13]: 1480 pM | max. binding (MFI) [13]: 17500 MFI | EC50 [14]: 128 pM | max. binding (MFI) [14]: 7950 MFI | kon [16]: 117000 M⁻¹ s⁻¹ | koff [17]: 0.00391 s⁻¹ | Kd [18]: 1060 pM | koff [18]: 0.000421 s⁻¹ | kon [18]: 398000 M⁻¹ s⁻¹
B2: PRO2000 (MATCH4, biMSLNhigh KD×CD3×hSA) (other)
chain 1: DIQMTQSPSSLSASVGDRVTITCQASQNIYSNLAWYQQKPGKAPKLLIYDASDLASGVPSRFSGSGSGTDFTLTISSLQPEDFATYYCQQVRSSSDIDNPFGTGTKVTVLGGGGGSGGGGSGGGGSGGGGSQVQLVESGGGLVQPGGSLRLSCAASGFSLSSYAMGWVRQAPGKGLEWIGYISTINNTYYASWAKGRFTISRDNSKNTVYLQMNSLRAEDTAVYYCAREIRSGWVDYGFSIWGQGTLVTVSSGGGGSGGGGSEVQLVESGGGLVQPGGSLRLSCAASGFSLSSYDMSWVRQAPGKGLAWIGASYASGPTYYASWAKGRFTISRDNSKNTVYLQMNSLRAEDTATYFCARGGWTGTSHSNIWGQGTLVTVSSGGGSGGGSEVQLVESGGGLVQPGGSLRLSCAASGFSFSSSYWICWVRQAPGKCLEWVGCVFTGDGTTYYASWAKGRFTISRDNSKNTVYLQMNSLRAEDTATYFCARPVSVYYYGMDLWGQGTLVTVSS
chain 2: DIQMTQSPSSLSASVGDRVTITCQASQNIYSNLAWYQQKPGKAPKLLIYDASDLASGVPSRFSGSGSGTDFTLTISSLQPEDFATYYCQQVRSSSDIDNPFGTGTKVTVLGGGGGSGGGGSGGGGSGGGGSQVQLVESGGGLVQPGGSLRLSCAASGFSLSSYAMGWVRQAPGKGLEWIGYISTINNTYYASWAKGRFTISRDNSKNTVYLQMNSLRAEDTAVYYCAREIRSGWVDYGFSIWGQGTLVTVSSGGGGSGGGGSDVVMTQSPSSLSASVGDRVTITCQASQIISSRSAWYQQKPGQPPKLLIYQASKLASGVPSRFSGSGSGTDFTLTISSLQPEDFATYYCQCTYIDSNFGAFGCGTKLTVLGGGSGGSDIQMTQSPSSLSASVGDRVTITCQSSQSVFSNNYLAWFQQKPGQSPKRLIYSASTLASGVPSRFSGSGSGTDFTLTISSLQPEDFATYYCLGSYACSSADCYVFGTGTKVTVLG
notes: Heterodimer; also called biMSLN.CD3
fold killing potency against PRO1872, H226 cells [1]: 75 fold | fold reduction of H226 killing potency with 500 ng/ml sMSLN [2]: 17 fold | shift of H226 killing potency with 100 ng/ml sMSLN [2]: 5 fold | EC50 target cell killing, H226 cells (flow cytometry cytotoxicity assay with PBMCs) [3]: 0.07 pM | EC50 target cell killing, Met-5A cells [3]: 145 pM | EC50 target cell killing, H292 cells [4]: 652 pM | EC50 target cell killing, HPAC cells [4]: 40.8 pM | EC50 H226 target cell killing, 50 ng/ml soluble mesothelin [5]: 31.2 pM | EC50 H226 target cell killing, 500 ng/ml soluble mesothelin [5]: 165 pM | EC50 H226 target cell killing, no mesothelin [5]: 9.73 pM | EC50 target cell killing, H226 cells, 100 ng/ml sMSLN [7]: 3.45 pM | EC50 target cell killing, H226 cells, no sMSLN [7]: 0.7 pM | max. killing, H226 cells, 100 ng/ml sMSLN [7]: 58.5% | max. killing, H226 cells, no sMSLN [7]: 49.4%

fold binding against PRO1872 [19]: 3 fold | fold lower binding against PRO1872 [20]: 2 fold | fold binding against PRO1872 [21]: 1.5 to 2 fold | EC50 [11]: 524 pM | max. binding (MFI) [11]: 363000 MFI | EC50 [12]: 1300 pM | max. binding (MFI) [12]: 6250 MFI | EC50 [13]: 1010 pM | max. binding (MFI) [13]: 18000 MFI | EC50 [14]: 62.8 pM | max. binding (MFI) [14]: 7480 MFI
B3: PRO2100 (MATCH4) (other)
chain 1: B2 chain 1 with N186A
chain 2: B2 chain 2 with N186A
notes: Variant of PRO2000 with anti-MSLN 54-01-G02-sc01 N66A (potential glycosylation site mutated)
shift of H226 killing potency with 100 ng/ml sMSLN [2]: 2 fold | EC50 target cell killing, H226 cells, 100 ng/ml sMSLN [7]: 3.56 pM | EC50 target cell killing, H226 cells, no sMSLN [7]: 1.54 pM | max. killing, H226 cells, 100 ng/ml sMSLN [7]: 58.9% | max. killing, H226 cells, no sMSLN [7]: 46.3%
